Data as given in publication PMC6610660 (Structure (London, England : 1993), 2019).

Tests used:
SpNatA = biological target: T1, SpNatA (Schizosaccharomyces pombe, UniProt O74985+Q9UTI3); assay: ITC; assay type: binding; conditions: 20 °C, pH 7.0, 200 mM NaCl, 1 mM DTT; Naa10 site
T1 sequence (Q9UTI3 1-156): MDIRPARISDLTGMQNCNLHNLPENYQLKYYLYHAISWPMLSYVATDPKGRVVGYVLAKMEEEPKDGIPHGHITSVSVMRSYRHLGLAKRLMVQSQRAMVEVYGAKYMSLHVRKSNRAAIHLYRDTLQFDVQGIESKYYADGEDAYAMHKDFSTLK
T1 sequence (O74985 1-729): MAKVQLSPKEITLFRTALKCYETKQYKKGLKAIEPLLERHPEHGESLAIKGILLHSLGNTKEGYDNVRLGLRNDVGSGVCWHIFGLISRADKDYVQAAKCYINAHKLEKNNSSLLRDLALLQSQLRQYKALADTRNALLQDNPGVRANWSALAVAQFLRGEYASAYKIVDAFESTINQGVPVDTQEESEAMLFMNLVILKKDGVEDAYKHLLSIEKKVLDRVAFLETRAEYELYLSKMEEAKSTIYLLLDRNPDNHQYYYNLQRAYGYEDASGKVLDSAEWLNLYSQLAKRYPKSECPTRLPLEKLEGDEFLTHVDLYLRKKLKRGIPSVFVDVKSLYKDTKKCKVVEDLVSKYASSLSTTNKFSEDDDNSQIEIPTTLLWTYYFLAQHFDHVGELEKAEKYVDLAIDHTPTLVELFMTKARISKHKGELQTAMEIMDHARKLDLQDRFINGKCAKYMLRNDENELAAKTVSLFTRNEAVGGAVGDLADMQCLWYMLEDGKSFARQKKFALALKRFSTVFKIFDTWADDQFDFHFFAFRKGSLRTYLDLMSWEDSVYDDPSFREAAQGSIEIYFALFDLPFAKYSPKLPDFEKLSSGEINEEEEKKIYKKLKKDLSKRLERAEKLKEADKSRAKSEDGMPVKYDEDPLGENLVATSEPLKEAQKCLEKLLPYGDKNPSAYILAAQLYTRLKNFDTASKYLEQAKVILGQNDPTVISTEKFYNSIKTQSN

GST-ScNaa50 = GST-ScNaa50 (Saccharomyces cerevisiae, UniProt Q08689); assay: ITC; assay type: binding; conditions: 20 °C, pH 7.0, 200 mM NaCl, 1 mM DTT; GST fusion, free GST negative
ScNatA/Naa50 = ScNatA/Naa50 (Saccharomyces cerevisiae, UniProt P07347+P12945+Q08689); assay: X-ray crystal structure, […] Å; assay type: binding; conditions: site between Naa10 and Naa15
[1] = biological target: Schizosaccharomyces pombe Naa50 (S. pombe); assay: differential scanning fluorimetry
[2] = biological target: Schizosaccharomyces pombe Naa50 labeled with Fluorescein-5-Maleimide (S. pombe); assay: fluorescence polarisation
human Naa50 = biological target: T2, human Naa50 (human, UniProt Q9GZZ1 1-169); assay: differential scanning fluorimetry
T2 sequence: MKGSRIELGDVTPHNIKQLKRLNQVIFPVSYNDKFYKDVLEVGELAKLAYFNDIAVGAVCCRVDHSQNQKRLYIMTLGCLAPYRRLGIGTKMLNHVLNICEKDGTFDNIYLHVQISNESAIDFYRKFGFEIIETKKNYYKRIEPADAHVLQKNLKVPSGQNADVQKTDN

GST-ScNaa50, sequence (Q08689 whole entry, the tested form may be a part): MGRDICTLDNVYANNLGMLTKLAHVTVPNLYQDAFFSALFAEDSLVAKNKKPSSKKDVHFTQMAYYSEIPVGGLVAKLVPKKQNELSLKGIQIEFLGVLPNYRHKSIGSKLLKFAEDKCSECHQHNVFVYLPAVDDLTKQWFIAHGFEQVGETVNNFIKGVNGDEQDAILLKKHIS
ScNatA/Naa50, sequence (Q08689 whole entry, one chain of several): as the sequence (Q08689 whole entry, the tested form may be a part) above

CC(=O)SCCNC(=O)CCNC(=O)[C@H](O)C(C)(C)COP(=O)(O)OP(=O)(O)OC[C@H]1O[C@@H](n2cnc3c(N)ncnc32)[C@H](O)[C@@H]1OP(=O)(O)O [acetyl-CoA]
dissociation constant (SpNatA): Representative ITC curve of acetyl-CoA titrated into SpNatA. The calculated dissociation constant is indicated | ITC (GST-ScNaa50): binding signal was detected by ITC between GST-ScNaa50 and acetyl-CoA

O=P(O)(O)O[C@H]1[C@H](OP(=O)(O)O)[C@@H](OP(=O)(O)O)[C@H](OP(=O)(O)O)[C@@H](OP(=O)(O)O)[C@H]1OP(=O)(O)O [IP6]
X-ray crystal structure, 2.7 Å (ScNatA/Naa50): Clear electron density for IP6 was visible between Naa10 and Naa15

B1: Schizosaccharomyces pombe NatA (SpNaa15/SpNaa10 complex), wild type (complex)
chain 1: MAKVQLSPKEITLFRTALKCYETKQYKKGLKAIEPLLERHPEHGESLAIKGILLHSLGNTKEGYDNVRLGLRNDVGSGVCWHIFGLISRADKDYVQAAKCYINAHKLEKNNSSLLRDLALLQSQLRQYKALADTRNALLQDNPGVRANWSALAVAQFLRGEYASAYKIVDAFESTINQGVPVDTQEESEAMLFMNLVILKKDGVEDAYKHLLSIEKKVLDRVAFLETRAEYELYLSKMEEAKSTIYLLLDRNPDNHQYYYNLQRAYGYEDASGKVLDSAEWLNLYSQLAKRYPKSECPTRLPLEKLEGDEFLTHVDLYLRKKLKRGIPSVFVDVKSLYKDTKKCKVVEDLVSKYASSLSTTNKFSEDDDNSQIEIPTTLLWTYYFLAQHFDHVGELEKAEKYVDLAIDHTPTLVELFMTKARISKHKGELQTAMEIMDHARKLDLQDRFINGKCAKYMLRNDENELAAKTVSLFTRNEAVGGAVGDLADMQCLWYMLEDGKSFARQKKFALALKRFSTVFKIFDTWADDQFDFHFFAFRKGSLRTYLDLMSWEDSVYDDPSFREAAQGSIEIYFALFDLPFAKYSPKLPDFEKLSSGEINEEEEKKIYKKLKKDLSKRLERAEKLKEADKSRAKSEDGMPVKYDEDPLGENLVATSEPLKEAQKCLEKLLPYGDKNPSAYILAAQLYTRLKNFDTASKYLEQAKVILGQNDPTVISTEKFYNSIKTQSN
chain 2: MDIRPARISDLTGMQNCNLHNLPENYQLKYYLYHAISWPMLSYVATDPKGRVVGYVLAKMEEEPKDGIPHGHITSVSVMRSYRHLGLAKRLMVQSQRAMVEVYGAKYMSLHVRKSNRAAIHLYRDTLQFDVQGIESKYYADGEDAYAMHKDFSTLK
melting temperature of NatA with Naa50 added (NatA alone 37.8 °C) [1]: 40.4 °C | Kd [2]: 17 nM

B2: Saccharomyces cerevisiae NatA (ScNaa15/ScNaa10 complex), wild type (complex)
chain 1: MSRKRSTKPKPAAKIALKKENDQFLEALKLYEGKQYKKSLKLLDAILKKDGSHVDSLALKGLDLYSVGEKDDAASYVANAIRKIEGASASPICCHVLGIYMRNTKEYKESIKWFTAALNNGSTNKQIYRDLATLQSQIGDFKNALVSRKKYWEAFLGYRANWTSLAVAQDVNGERQQAINTLSQFEKLAEGKISDSEKYEHSECLMYKNDIMYKAASDNQDKLQNVLKHLNDIEPCVFDKFGLLERKATIYMKLGQLKDASIVYRTLIKRNPDNFKYYKLLEVSLGIQGDNKLKKALYGKLEQFYPRCEPPKFIPLTFLQDKEELSKKLREYVLPQLERGVPATFSNVKPLYQRRKSKVSPLLEKIVLDYLSGLDPTQDPIPFIWTNYYLSQHFLFLKDFPKAQEYIDAALDHTPTLVEFYILKARILKHLGLMDTAAGILEEGRQLDLQDRFINCKTVKYFLRANNIDKAVEVASLFTKNDDSVNGIKDLHLVEASWFIVEQAEAYYRLYLDRKKKLDDLASLKKEVESDKSEQIANDIKENQWLVRKYKGLALKRFNAIPKFYKQFEDDQLDFHSYCMRKGTPRAYLEMLEWGKALYTKPMYVRAMKEASKLYFQMHDDRLKRKSDSLDENSDEIQNNGQNSSSQKKKAKKEAAAMNKRKETEAKSVAAYPSDQDNDVFGEKLIETSTPMEDFATEFYNNYSMQVREDERDYILDFEFNYRIGKLALCFASLNKFAKRFGTTSGLFGSMAIVLLHATRNDTPFDPILKKVVTKSLEKEYSENFPLNEISNNSFDWLNFYQEKFGKNDINGLLFLYRYRDDVPIGSSNLKEMIISSLSPLEPHSQNEILQYYL
chain 2: MPINIRRATINDIICMQNANLHNLPENYMMKYYMYHILSWPEASFVATTTTLDCEDSDEQDENDKLELTLDGTNDGRTIKLDPTYLAPGEKLVGYVLVKMNDDPDQQNEPPNGHITSLSVMRTYRRMGIAENLMRQALFALREVHQAEYVSLHVRQSNRAALHLYRDTLAFEVLSIEKSYYQDGEDAYAMKKVLKLEELQISNFTHRRLKENEEKLEDDLESDLLE
increase of the melting temperature of NatA on addition of Naa50 [1]: 7.4 °C

B3: human NatA (hNaa15/hNaa10 complex), wild type (complex)
chain 1: MPAVSLPPKENALFKRILRCYEHKQYRNGLKFCKQILSNPKFAEHGETLAMKGLTLNCLGKKEEAYELVRRGLRNDLKSHVCWHVYGLLQRSDKKYDEAIKCYRNALKWDKDNLQILRDLSLLQIQMRDLEGYRETRYQLLQLRPAQRASWIGYAIAYHLLEDYEMAAKILEEFRKTQQTSPDKVDYEYSELLLYQNQVLREAGLYREALEHLCTYEKQICDKLAVEETKGELLLQLCRLEDAADVYRGLQERNPENWAYYKGLEKALKPANMLERLKIYEEAWTKYPRGLVPRRLPLNFLSGEKFKECLDKFLRMNFSKGCPPVFNTLRSLYKDKEKVAIIEELVVGYETSLKSCRLFNPNDDGKEEPPTTLLWVQYYLAQHYDKIGQPSIALEYINTAIESTPTLIELFLVKAKIYKHAGNIKEAARWMDEAQALDTADRFINSKCAKYMLKANLIKEAEEMCSKFTREGTSAVENLNEMQCMWFQTECAQAYKAMNKFGEALKKCHEIERHFIEITDDQFDFHTYCMRKITLRSYVDLLKLEDVLRQHPFYFKAARIAIEIYLKLHDNPLTDENKEHEADTANMSDKELKKLRNKQRRAQKKAQIEEEKKNAEKEKQQRNQKKKKDDDDEEIGGPKEELIPEKLAKVETPLEEAIKFLTPLKNLVKNKIETHLFAFEIYFRKEKFLLMLQSVKRAFAIDSSHPWLHECMIRLFNTAVCESKDLSDTVRTVLKQEMNRLFGATNPKNFNETFLKRNSDSLPHRLSAAKMVYYLDPSSQKRAIELATTLDESLTNRNLQTCMEVLEALYDGSLGDCKEAAEIYRANCHKLFPYALAFMPPGYEEDMKITVNGDSSAEAEELANEI
chain 2: MNIRNARPEDLMNMQHCNLLCLPENYQMKYYFYHGLSWPQLSYIAEDENGKIVGYVLAKMEEDPDDVPHGHITSLAVKRSHRRLGLAQKLMDQASRAMIENFNAKYVSLHVRKSNRAALHLYSNTLNFQISEVEPKYYADGEDAYAMKRDLTQMADELRRHLELKEKGRHVVLGAIENKVESKGNSPPSSGEACREEKGLAAEDSGGDSKDLSEVSETTESTDVKDSSEASDSAS
melting temperature of NatA with Naa50 added (NatA alone 44 °C) (human Naa50): 46.6 °C
